The Human Domainome abundance scans (Beltran et al. 2025)
± gives the uncertainty stated by the source.

B1: Dynamin-binding protein, residues 242 to 304; numbered along this chain, Q6XZF7 (parent)
chain: EEPGTYGVALYRFQALEPNELDFEVGDKIRILATLEDGWLEGSLKGRTGIFPYRFVKLCPDTR
B2: Zinc finger MYM-type protein 6, residues 427 to 504; numbered along this chain, O95789 (parent)
chain: KLKCQHCNHLFATKPELLFYKGKMFLFCGKNCSDEYKKKNKVVAMCDYCKLQKIIKETVRFSGVDKPFCSEVCKFLSA

Variants of: B1
Experiment: abundance fitness (aPCA) (normalised: wild type 0, dead -1); higher = more abundant; growth selection in yeast, the domain comes from the species named
Details: Homo sapiens

Row | Variant | abundance fitness
1 | R12H | -0.446 ± 0.11
2 | W39L | -0.184 ± 0.067
3 | L10E | -0.655 ± 0.25
4 | G38L | -0.61 ± 0.12
5 | K57V | -0.637 ± 0.068
6 | I31A | -1.03 ± 0.21
7 | F13Q | -0.212 ± 0.2
8 | D27K | -0.902 ± 0.49
9 | K45G | -0.113 ± 0.07
10 | G38K | -1.06 ± 0.46
11 | D27T | -0.656 ± 0.18
12 | I29E | -0.721 ± 0.22
13 | T48Q | -0.203 ± 0.12
14 | D61K | -0.096 ± 0.19
15 | R12Y | -0.834 ± 0.12
16 | L32P | -0.687 ± 0.15
17 | G38V | -0.668 ± 0.074
18 | S43L | -0.368 ± 0.082
19 | E24H | -0.199 ± 0.075
20 | F55A | -0.091 ± 0.04
21 | V25S | -0.448 ± 0.061
22 | D37E | -0.407 ± 0.16
23 | E1H | -0.8 ± 0.18
24 | L58F | -0.186 ± 0.048
25 | L10D | -0.679 ± 0.11

Row | Variant | abundance fitness
26 | A15P | -0.355 ± 0.12
27 | T48V | -0.075 ± 0.048
28 | T5E | -0.61 ± 0.17
29 | R54M | -0.583 ± 0.16
30 | D27C | -0.811 ± 0.099
31 | K57L | -0.562 ± 0.074
32 | K45H | 0.081 ± 0.076
33 | E1F | -0.277 ± 0.11
34 | R12E | -0.469 ± 0.21
35 | K28T | -0.282 ± 0.08
36 | K57C | -0.406 ± 0.054
37 | F13V | -0.71 ± 0.076
38 | G49L | -0.887 ± 0.16
39 | P18T | -0.333 ± 0.094
40 | P18Y | -0.473 ± 0.077
41 | G26P | -1.07 ± 0.22
42 | R12G | -0.071 ± 0.051
43 | I31Y | -0.91 ± 0.12
44 | S43I | -0.539 ± 0.082
45 | L40A | 0.18 ± 0.052
46 | T62I | -0.034 ± 0.055
47 | R47M | -0.689 ± 0.18
48 | D37A | -0.452 ± 0.074
49 | S43F | -0.226 ± 0.068
50 | K45N | 0.037 ± 0.061

Row | Variant | abundance fitness
51 | E17V | -0.4 ± 0.063
52 | E2L | -0.011 ± 0.066
53 | L44G | -0.868 ± 0.12
54 | G38P | -1.06 ± 0.34
55 | Y6V | -0.135 ± 0.052
56 | L35F | -0.315 ± 0.071
57 | R30T | -0.644 ± 0.12
58 | E1M | -0.02 ± 0.17
59 | P18L | -0.42 ± 0.075
60 | G46N | -0.326 ± 0.048
61 | D27H | -0.927 ± 0.15
62 | P3L | 0.108 ± 0.071
63 | E20N | -0.227 ± 0.071
64 | L16Q | 0.284 ± 0.12
65 | V8F | -0.373 ± 0.075
66 | P60T | 0.088 ± 0.07
67 | V8W | -0.738 ± 0.2
68 | L58S | -0.64 ± 0.06
69 | D61A | -0.095 ± 0.057
70 | L58C | -0.409 ± 0.06
71 | K45L | -0.502 ± 0.081
72 | V8E | -0.206 ± 0.15
73 | K28S | -0.535 ± 0.074
74 | E1I | 0.005 ± 0.077
75 | T34Q | -0.183 ± 0.12

Row | Variant | abundance fitness
76 | P3A | -0.337 ± 0.1
77 | P18N | -0.275 ± 0.071
78 | S43N | -0.308 ± 0.064
79 | L21G | -0.96 ± 0.13
80 | S43C | -0.245 ± 0.069
81 | I29L | -0.573 ± 0.093
82 | V8N | -0.681 ± 0.12
83 | G7A | 0.36 ± 0.056
84 | G42M | -0.987 ± 0.34
85 | D37V | -0.561 ± 0.068
86 | G46I | -0.711 ± 0.059
87 | I31T | -0.722 ± 0.14
88 | R12F | -0.91 ± 0.13
89 | A33F | -0.726 ± 0.11
90 | T5L | 0.052 ± 0.059
91 | D27R | -0.79 ± 0.1
92 | E36F | -0.711 ± 0.1
93 | A15W | -0.637 ± 0.23
94 | D37T | -0.361 ± 0.099
95 | I50P | -0.973 ± 0.27
96 | D37Q | -0.298 ± 0.17
97 | L10N | -0.827 ± 0.11
98 | G42Y | -0.924 ± 0.14
99 | F23S | -0.527 ± 0.061
100 | L21R | -0.839 ± 0.11

Row | Variant | abundance fitness
101 | V56R | -0.887 ± 0.14
102 | P52Y | -0.569 ± 0.11
103 | D37K | -0.287 ± 0.25
104 | A33Y | -0.568 ± 0.095
105 | L44R | -0.367 ± 0.099
106 | D22Q | 0.148 ± 0.11
107 | D27W | -0.485 ± 0.16
108 | T62W | -0.37 ± 0.19
109 | L16H | 0.141 ± 0.074
110 | R12A | 0.177 ± 0.06
111 | E41I | -0.465 ± 0.08
112 | G49T | -0.829 ± 0.18
113 | Q14Y | -0.172 ± 0.066
114 | R47L | -0.453 ± 0.084
115 | W39E | -0.379 ± 0.17
116 | A9S | -0.566 ± 0.067
117 | I29R | -0.649 ± 0.1
118 | G26I | -0.744 ± 0.094
119 | L32F | -0.652 ± 0.086
120 | L35I | -0.131 ± 0.063
121 | T5S | -0.282 ± 0.055

Variants of: B2
Experiment: as above
Details: Homo sapiens

Row | Variant | abundance fitness
122 | K1A | -0.276 ± 0.041
123 | K1C | -0.147 ± 0.048
124 | K1D | -0.008 ± 0.055
125 | K1E | -0.104 ± 0.046
126 | K1F | -0.697 ± 0.34
127 | K1G | -0.229 ± 0.033
128 | K1H | -0.209 ± 0.067
129 | K1L | -0.271 ± 0.047
130 | K1M | -0.252 ± 0.05
131 | K1Q | -0.194 ± 0.14
132 | K1S | -0.131 ± 0.076
133 | K1V | -0.355 ± 0.039
134 | K1W | -0.536 ± 0.038
135 | L2A | 0.096 ± 0.03
136 | L2C | -0.089 ± 0.042
137 | L2D | 0.069 ± 0.054
138 | L2E | 0.109 ± 0.035
139 | L2F | 0.018 ± 0.14
140 | L2G | 0.082 ± 0.028
141 | L2H | -0.131 ± 0.11
142 | L2I | -0.06 ± 0.054
143 | L2M | 0.048 ± 0.084
144 | L2P | -0.068 ± 0.052

Row | Variant | abundance fitness
145 | L2Q | 0.099 ± 0.059
146 | L2R | 0.014 ± 0.028
147 | L2S | 0.031 ± 0.038
148 | L2T | 0.125 ± 0.042
149 | L2V | 0.01 ± 0.031
150 | L2W | -0.119 ± 0.032
151 | K3C | -0.163 ± 0.053
152 | K3D | -0.186 ± 0.079
153 | K3E | 0.001 ± 0.036
154 | K3F | -0.116 ± 0.055
155 | K3G | -0.078 ± 0.029
156 | K3H | -0.156 ± 0.096
157 | K3I | -0.124 ± 0.068
158 | K3L | -0.073 ± 0.036
159 | K3M | -0.192 ± 0.051
160 | K3N | -0.011 ± 0.051
161 | K3P | -0.071 ± 0.043
162 | K3Q | -0.032 ± 0.038
163 | K3R | -0.075 ± 0.032
164 | K3S | 0.021 ± 0.042
165 | K3T | -0.102 ± 0.046
166 | K3V | -0.138 ± 0.034
167 | K3W | -0.243 ± 0.042
